Source: patent publication US9389182B2 (University of Southern California, priority 2011, dated 2016)

Key:
[1] = biological target: T1, BSA (Bos taurus, UniProt P02769); assay: Blocking of free carboxyl groups on BSA before AMC labeling (SDS-PAGE, native gels, gel fluorescence); parameters: species or system bovine; details: 50 mg BSA, 1 h
T1 construct: purchased thermo-Fisher BP1605-100
Procedure: FIG. 2. […] Values are means±SE, n=3. […] Values are means±SE, n=3. […] A silver stain was later performed. (D) N-(3-Dimethylamineopropyl)-N′-ethylcarbodiimide (1 ng/ml to 100 μg/ml) which blocks free carboxyl groups, was incubated with 50 mg of BSA for 1 hr. BSA was extensively dialyzed then prepared as in panel (C). Increasing concentrations of N-(3-Dimethylamineopropyl)-N′-ethylcarbodiimide, caused a progressive decrease in BSA's electrophoretic mobility, and loss of fluorescence at 66 kDa; a representative gel is shown to the left of the panel, and fluorescence is quantified in the graph to the right; […]
For SDS Page gels, samples were mixed with 25% Nupage loading Dye (Invitrogen, Carlsbad, Calif., USA, catalogue#NP0007) containing 5% 2-mercaptoethanol, Samples were boiled for 3 minutes then added to a 12% Tris-glycine SDS page gel. […] In experiments where gel fluorescence was analyzed, gels were placed in a chamber and exposed to an excitation wavelength of 365 nm. […]

[2] = biological target: T1, BSA; assay: Blocking of exposed amine groups on BSA before AMC labeling; parameters: species or system bovine; details: 0.5-50 mM
Description: (§1) In some experiments samples were pre-treated with either N-(3-Dimethylaminopropyl)-N′-ethylcarbodiimide hydrochloride (Sigma-Aldrich, MO, USA, catalogue#E6383-1G) to block free protein carboxyl groups, with sulfo-N-hydroxysulfosuccinimide-acetate (Pierce, Rockford, Ill., USA, catalogue #26777) to block free protein amino groups, or with tryptamine (Sigma-Aldrich, MO, USA, catalogue#193747-10G) to disrupt potential non-covalent interactions in protein hydrophobic pockets.
To test whether exposed amine groups on the protein might react with the carboxyl group on the fluorophore, we used 0.5-50 mM sulfo-NHS-acetate was used to block exposed amine groups on BSA. […] This implies that the complex formed between AMC and BSA is independent of exposed protein amine groups.

[3] = biological target: T1, BSA; assay: Tryptamine competition for non-covalent AMC binding sites on BSA; parameters: species or system bovine; details: 100 fold excess
Description: as §1
Another possibility was that AMC might be sequestered in protein hydrophobic pockets by non-covalent interactions. […] The ability of the BSA/AMC complex to function as a substrate for proteolysis was also tested.

[4] = test system: Trypsin; assay: Proteolysis of AMC-labeled proteins by trypsin, fluorescence assay (AMC release); format: biochemical; details: for substrate for proteolysis by trypsin, release of fluorescent AMC: AMC-labeled protein 10 μg/ml, 10 μM trypsin
Procedure: FIG. 3. Proteolysis of AMC-labeled Proteins by Trypsin. […] Values are means±SE's, n=3. […] All assay conditions (including trypsin concentration) were identical to those in A, and each substrate protein was used at a final concentration of 10 μg/ml. […] Values are means±SE's, n=3;
FIG. 4. Protease and Substrate Titration, and Particle Size of Proteolytic Degradation Products. […] Values are means±SE's, n=4, for which the fluorescence of controls was subtracted. […] Background fluorescence or radioactivity were measured in the absence of protease (proteolysis buffer alone), and proteolysis was measured by increased fluorescence or acid-soluble radioactivity after incubation with either 10 μM Trypsin, 1 μg/ml purified 20S proteosome, or 150 μg/ml MEF cell lysate. Percent degradation of Hb-AMC is reported as the percentage of total fluorescence that could be released from Hb-AMC after exhaustive proteolytic digestion (not shown), whereas percent degradation of [3H]Hb is reported as the percent of total (initial) radioactive counts released into TCA-soluble form by proteolysis. All values are means±SE's, n=3;

[5] = biological target: T2, purified 20S proteasome (Homo sapiens, UniProt P28072+P28074+Q99436); assay: Degradation of native and oxidized AMC-labeled proteins by purified 20S proteasome; format: biochemical; details: for increase in susceptibility to proteasomal degradation: following mild oxidation with H2O2 (1.0 mM); for substrate for the purified proteasome: unoxidized form
T2 construct: purchased Biomol PW8720-0050
Procedure: (§2) FIG. 7. Proteolytic Susceptibility of Modified AMC-labeled Proteins. (A) The capacity of 20S proteasome to degrade both the native and oxidized forms of Hb-AMC and BSA-AMC was measured. For both assays, 1 μg/ml of purified 20S proteasome was combined with 10 μg/ml of Hb-AMC, Hbox-AMC, BSA-AMC, or BSAox-AMC and incubated for 4 hr at 37° C. Protein degradation was then measured as per FIG. 4. Hbox-AMC, and BSAox were prepared by treating Hb-AMC and BSA-AMC with 1.0 mM H2O2 followed by extensive dialysis. (B) The Capacity of MEF cell lysates to degrade various modified forms of Hb-AMC was measured. Hb-AMC was modified by incubation with dilute HCl at pH 4, 10% 2-mercaptoethanol, 70% methanol, 1 mM peroxynitrite, or 1 mM H2O2, or was boiled at 100° C. for 60 minutes, or subjected to freeze-thawing at −80° C. The substrates were then extensively dialyzed and incubated with 150 μg/ml of MEF cell lysates for 4 hr. In both panels, values are means±SE's, n=3.

[6] = biological target: T3, proteinase K (Parengyodontium album, UniProt P06873); assay: Proteolysis of Hb-AMC by proteinase K (AMC release); format: biochemical; details: pH 11, 4 hr at 37° C.
T3 construct: purchased Oncor S4508

[7] = test system: MEF cell lysates; assay: Degradation of modified Hb-AMC by MEF cell lysates; format: biochemical, murine; details: oxidative modification by H2O2 or peroxynitrite
Procedure: as §2, with “In both panels, values are means±SE's, n=3.” left out
Murine embryonic fibroblasts (MEF) from ATCC (Manassas, Va., USA, catalogue CRL-2214) were grown in Dulbecco's Modified Eagle's Medium (DMEM, Mediatech, Manassas, Va., catalogue #10-013-CV) supplemented with 10% Fetal Bovine Serum (Hyclone, Logan, Utah, catalog #SH30070.03). […] The lysates were then centrifuged at 10,000 g for 10 minutes, after which the supernatants were retained (the pellets discarded) and protein content was determined by BCA assay.

[8] = biological target: pepsin (Sus scrofa, UniProt P00791); assay: Proteolysis of Hb-AMC by pepsin (AMC release); details: pH 2, 4 hr at 37° C.
Procedure: (§3) In each experiment, pH was adjusted appropriately for the proteinase studied, and samples were incubated at 37° C. for 4 hours.

[9] = biological target: chymotrypsin (Bos taurus, UniProt P00766); assay: Proteolysis of Hb-AMC by chymotrypsin (AMC release); details: pH 7.8, 4 hr at 37° C.
Procedure: as §3

[10] = Stability of Hb-AMC after frozen storage or denaturation (background release of free AMC); format: physicochemical
Procedure: FIG. 5. Stability of AMC-labeled Hemoglobin After Frozen Storage or Denaturation. (A) Hb-AMC was stored at −20° C. for up to 21 weeks. […] Release of free AMC from the Hb-AMC complex (background fluorescence) was then measured in comparison with control (untreated Hb-AMC). In all three panels, values are means±SE's, n=3;
The stability of AMC-labeled substrates, the resistance of the AMC-protein linkage to various treatments, and the reproducibility of proteolytic assays after prolonged storage are important concerns in weighing the usefulness of the technique of various embodiments of the present invention.
Embodiments of the present invention provide a new way to label proteins for studies of oxidation-induced changes in proteolytic susceptibility. In addition to oxidants, proteolytic substrates are often subjected to various other modifying or denaturing conditions, to test for effects on proteolytic susceptibility, therefore it is important to test the stability of AMC-labeled substrates over a range of harsh conditions.

[11] = pH stability of the Hb-AMC complex; format: physicochemical; details: pH 1-12, 4 hr, read after readjusting to pH 7.8
Procedure: The stability of protein-AMC adducts over the same broad range of pH was determined. […] The viability of protein-AMC complexes as substrates for proteases was tested with widely different pH optima.

[12] = stored at −20° C., repeated trials over 150 days

T1 sequence (P02769 25-607): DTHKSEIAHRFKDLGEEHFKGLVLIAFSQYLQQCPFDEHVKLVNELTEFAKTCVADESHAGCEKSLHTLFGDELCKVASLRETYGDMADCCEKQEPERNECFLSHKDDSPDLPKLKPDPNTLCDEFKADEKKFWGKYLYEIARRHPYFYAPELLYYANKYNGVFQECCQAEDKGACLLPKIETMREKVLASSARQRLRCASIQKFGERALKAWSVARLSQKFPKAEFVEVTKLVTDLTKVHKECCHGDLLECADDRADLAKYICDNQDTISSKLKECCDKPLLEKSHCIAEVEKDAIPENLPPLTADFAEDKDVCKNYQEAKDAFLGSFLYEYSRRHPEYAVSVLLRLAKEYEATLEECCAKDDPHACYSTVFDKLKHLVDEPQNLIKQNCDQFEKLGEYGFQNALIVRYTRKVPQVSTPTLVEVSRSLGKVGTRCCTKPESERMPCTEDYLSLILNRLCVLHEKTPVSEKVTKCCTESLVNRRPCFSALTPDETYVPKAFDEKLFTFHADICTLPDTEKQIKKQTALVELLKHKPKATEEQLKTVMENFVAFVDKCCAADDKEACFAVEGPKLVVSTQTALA
Sequence of pepsin (P00791 60-385): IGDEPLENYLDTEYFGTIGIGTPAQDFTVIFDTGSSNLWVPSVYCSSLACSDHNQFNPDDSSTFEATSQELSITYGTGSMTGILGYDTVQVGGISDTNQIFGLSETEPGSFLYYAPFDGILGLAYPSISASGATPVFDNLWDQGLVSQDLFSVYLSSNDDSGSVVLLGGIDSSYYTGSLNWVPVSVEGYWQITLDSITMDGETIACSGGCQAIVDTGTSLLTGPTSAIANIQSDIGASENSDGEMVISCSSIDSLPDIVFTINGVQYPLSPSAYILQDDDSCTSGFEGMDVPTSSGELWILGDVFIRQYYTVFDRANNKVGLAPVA
T3 sequence (P06873 106-384): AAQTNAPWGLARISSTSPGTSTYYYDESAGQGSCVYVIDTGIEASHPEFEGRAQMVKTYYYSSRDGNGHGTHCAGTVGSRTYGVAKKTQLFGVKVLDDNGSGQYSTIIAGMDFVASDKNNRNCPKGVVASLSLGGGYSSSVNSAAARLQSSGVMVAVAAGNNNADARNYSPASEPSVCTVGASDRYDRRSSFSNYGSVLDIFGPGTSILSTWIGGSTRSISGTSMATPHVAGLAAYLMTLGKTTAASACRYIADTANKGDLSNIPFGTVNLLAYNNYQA

CCN=C=NCCCN(C)C.Cl [N-(3-Dimethylaminopropyl)-N′-ethylcarbodiimide hydrochloride]
protein carboxyl-group blocking, decreased electrophoretic mobility [1]: dose-dependent protein carboxyl-group blocking
formation of BSA-AMC adducts, fluorescent band at 66 kDa ([1]; then AMC and NaCNBH3): prevented the formation of BSA-AMC adducts

CC(=O)ON1C(=O)CC(S(=O)(=O)O)C1=O (centres unmarked) [sulfo-NHS-acetate, sulfo-N-hydroxysulfosuccinimide-acetate]
change in the fluorescence of the BSA-AMC complex [2]: no significant change
free amine groups on BSA blocked [2]: 80%

NCCc1c[nH]c2ccccc12 [tryptamine]
association between AMC and BSA blocked [3]: above 30%
effect on effectiveness of BSA as a proteolytic substrate [3]: minimal effects

BSA-AMC: AMC-labeled bovine serum albumin
substrate for proteolysis by trypsin, release of fluorescent AMC [4]: effective and sensitive substrates
increase in susceptibility to proteasomal degradation [5]: four
substrate for the purified proteasome [5]: rather poor substrates

Hb-AMC: AMC-labeled hemoglobin, made by reductive labeling with AMC and sodium cyanoborohydride
substrate for proteolysis [6]: excellent substrate
substrate for proteolysis by trypsin, release of fluorescent AMC [4]: effective and sensitive substrates
increase in AMC liberation after trypsin digestion ([4]; Hb labeled by full procedure with AMC and NaCNBH3): 80 fold
increase in AMC liberation following incubation with trypsin ([4]; Hb reacted with AMC alone, no NaCNBH3): six
background AMC release relative to Hb reacted with AMC alone ([4]; full labeling procedure with NaCNBH3): one-sixth
substrate for proteolysis ([4]; pH 7.8, 4 hr at 37° C.): excellent substrate
variation of trypsin-induced release of AMC on storage [4, 12]: less than 15%
degradation by MEF cell extracts versus unmodified (control) Hb-AMC [7]: significantly increased
substrate for proteolysis [8]: excellent substrate
substrate for proteolysis [9]: excellent substrate
sensitivity of proteolytic measurement versus [3H]Hb ([5]; 1 μg/ml purified 20S proteasome): broadly comparable sensitivity
increase in susceptibility to proteasomal degradation [5]: more than 300 fold
substrate for the purified proteasome [5]: rather poor substrates
stability of the complex to modifying or denaturing conditions ([10]; 1 mM H2O2, 1 mM peroxynitrite, dilute HCl pH 4, 10% 2-mercaptoethanol, freeze-thawing at −80° C., or 50% methanol): almost completely stable
breakdown of the Hb-AMC complex ([10]; boiling (100° C.) for 60 minutes): 3.1%
effect of repeated freeze thaw cycles on stability of the complex (background release of free AMC) ([10]; repeated −20° C. freeze-thaw cycles): did not significantly affect the stability
variation of background AMC release on storage [10, 12]: less than 15%
decrease in stability of the complex [11]: < 0.2%

SOD-AMC: AMC-labeled superoxide dismutase
substrate for proteolysis by trypsin, release of fluorescent AMC [4]: effective and sensitive substrates

B1: catalase: catalase with the AMC fluorophore bound (AMC-labeled catalase) (conjugate, UniProt P00432 2-527, looked up)
Catalase: ADNRDPASDQMKHWKEQRAAQKPDVLTTGGGNPVGDKLNSLTVGPRGPLLVQDVVFTDEMAHFDRERIPERVVHAKGAGAFGYFEVTHDITRYSKAKVFEHIGKRTPIAVRFSTVAGESGSADTVRDPRGFAVKFYTEDGNWDLVGNNTPIFFIRDALLFPSFIHSQKRNPQTHLKDPDMVWDFWSLRPESLHQVSFLFSDRGIPDGHRHMNGYGSHTFKLVNANGEAVYCKFHYKTDQGIKNLSVEDAARLAHEDPDYGLRDLFNAIATGNYPSWTLYIQVMTFSEAEIFPFNPFDLTKVWPHGDYPLIPVGKLVLNRNPVNYFAEVEQLAFDPSNMPPGIEPSPDKMLQGRLFAYPDTHRHRLGPNYLQIPVNCPYRARVANYQRDGPMCMMDNQGGAPNYYPNSFSAPEHQPSALEHRTHFSGDVQRFNSANDDNVTQVRTFYLKVLNEEQRKRLCENIAGHLKDAQLFIQKKAVKNFSDVHPEYGSRIQALLDKYNEEKPKNAVHTYVQHGSHLSAREKANL
modifications: AMC fluorophore label
substrate for proteolysis by trypsin, release of fluorescent AMC [4]: effective and sensitive substrates
